The data set can be described thus: label from the status in PepcDB records.

In a protein production outcome set (Wang et al. 2014) one finds protein production data, which are given here for 10 sequences.

With “MLRFPGQGHHNPDDVVIGLLDLAARVDEALAVQAVAFGLGADEVAVRHQIVLRHLTSPGARAFGATTGDGRLVGFVYGMPNDRTHWWSTVVEPYLRGQGHEDWLDNSFVITELHVHPHFQNHGIGRSLITTITDGAAEPRSILSAIDTESPARGLYHSLGYEDLARQVLFPSAPRPYAVMGAPLPLRRR”, the protein production entry was “failed”.

In the case of “MLRGDILDSKRTSIMTRFSSLLLALSVLLLPLRPAQGQPAERTSSLTVEQIMQAPETWIGDWPTNARWHESGQALYFNWNPGGDFPSDSLYKVSRSGGAPQKVSPAERRSNPPTFDGWHHGEHVYTDDFSRKVYAADGDLYLYNRETDTQTRLTDTPAREGNPRFGLEEDRVLFERDDNLFSVHLSTGQIRQLTNVQSGREPQEGAPSPRERFLEEQQLELFETLRERNEEEEQADEARERDREADDPPPPFYTGDAEVSALRMDPTERFVTIAQQSQPDAADPTQVIDYVTESGQADVRRARPKVGIPPGDFALHVQDLKRDTTIAVNLHQLPGAYDVPAYRQEQGAELDSSEAKRALYSYGPYWSADGDHGVLVVRADNNKDRWIARLDPETGDLTVLDRQHDTAWIGGPGISAYGGPGNVGWMPDGEHFYFQSEATGYSHLYTVDVETGETTQLTSGDFEVLDARLSQDGSTWTLTTNRHSPHQQHVERMPADGGDITRLTQMTGTHDAVLSPDGTRLATLYSTTNQPADLYLKDATADADPVRITESPTDEWAAYDWRMPELTRFEASDGVEVPAHVFRPDNPNGAAVFFVHGAGYLQNVLKDFPPYFREYMFHNMLTDLGYTVVDVDYRGSAGYGRDWRTAVYRHMGGRDLQDYVDAAKWVGDTYGIPAERRFIYGGSYGGFMTLMALFTEPEHFGGGAALRSVTDWAHYNDVYTSNILNTPQTDSLAYARSSPIYHAEGLEDPLLMPHGLVDTNVQPQDIFRLTQRLIELGKENWELAIYPVEGHGFEEPSSWTDEYRRIFELIQESVGPERPQN”, the protein production result is “failed”.

In the case of “MLRGLRIIAENKIGVLRDLTTIIAEEGGNITFAQTFLIKHGEHEGKALIYFEIEGGDFEKILERVKTFDYIIEIEEEESFERVFGKRVIILGGGALVSQVAIGAISEADRHNLRGERISVDTMPVVGEEEIAEAVKAVSRLHRAEVLVLAGGIMGGKITEEVKKLRKSGIRVISLSMFGSVPDVADVVISDPVMAGTLAVMHISEKAKFDLDRVKGRRI”, the protein production entry is “not failed”.

For the sequence “MLRIFSAKNEVDSKYIFMLAFMLALFSSGVPPEIVILHLSREDSFEPYTKVFKKIRNLVSGYRYKFSSAITYSIKNLNIRFLKEFLIRLSQAVTFGDDMIEFLSREIDFTLSEYNAYSARLIESMNNFLTIYATLNSSLTFLVADITILSLIYSGGTTLIIQLTILSLALLGNLTLVMYLLYRPENYIRYNVIDKFVLTFTISLSIIFSVIYTSYIVLMGTGIVLLGIGLRYRLYENKINRIERHFLLFIRYFSRNYAIVSNLKESLMAVLRGDLGDVRPLIRRSLNRLNFGIDKEKIFRLIGDESGSILVSMLSKVLYETISMGGNAMIIGEILSKIGDSVLNIRSRKEQNGRAFETSIYALQTASAGVSAALISIVGMLNNIFSTQNVSTVFSFSEVNIDIISRIFLIILLILSFANGIAITLAYGKSLYVSLYFIGILIILSSISYHIVLILTGNIFKELASPSGLLQTT”, the protein production result is on record as “failed”.

For “MLRLVKKSVIGLVDWFLYKALKTSQKQFLSSLLTEKQKQAIKRVIKPGKKQTQLRKIERLKYRLYNLGFTNRALEDLQLICRESGEPYLKRLAAWELALWHANQYTTEDAKACLRYLDIATTGVKDRDDLRAVAIVKAECYDLLGEREQGKELVQQMIETQPHPDLYLAAANLETTVAQRMKWINKVFAHYGTEPLELTEQADEKSPYDALGVNGIDESSENDEQPKVTVIIPAFNAESVIQTSIESMQKQTWTNLEIFVVDDCSTDETASIVHQYAEQDHRVHYLKTETNSGAYVARNIALQHATGDFVTINDADDWSHSRKIEIQVRHLLKHPNIIGNFSQQVRATNDLKFYRRGKPGLYIFANMSSFMFRRKPAMDKLGYWDCVRFAGDSEFVKRIKLAFGEKAVVELPTAPLSFQRQSGESLTSHSAFGFPGYFMGARREYAEAHDHFHRTSQEGLRYSFPQKERPFPVPEPMLPNRQPKSAGRRHFDVILASEFRLLGGTNMSNVEEIKAQREMGLRTGLIQLSRYDLNSVEAINPNVRELIDGDQVQMIVYGEQVSCDVLIVRHPPILQEWQRYVPNVEAKSVHVIVNQPPQRDYGDNGSVLYELPRCIDHLQAYFGKKGIWYPIGPNVREALYEHHHKDLQAIPFSDQDWVNIINVKEWKRVTRREKDGKIKIGRHSRDQYVKWPKDRATMLQIYPDKEPFEVHILGGAKSPTKVLGSLPANWHVREFGEVHPREFLAELDVFVYFTHPDWVEAFGRVVFEAMAAGVPVIVPHEYEKLFGEAAIYAEITEVQEKVMKLMADDKYYQSQVEKALIYVENQFGYSQHAARLETFLHEDERAEV”, the protein production result was “failed”.

On to “MLRVIVESASNIPKTKFGKPDPIVSVIFKDEKKKTKKVDNELNPVWNEILEFDLRGIPLDFSSSLGIIVKDFETIGQNKLIGTATVALKDLTGDQSRSLPYKLISLLNEKGQDTGATIDLVIGYDPP”, for which the protein production result was “not failed”.

In the case of “MLRYLALSEAGIAKLPRPQSRCYHSEKGVWGYKPIAQREFQVAEDVRASRNSQANVYRFVEAFRQHGHKLAAVNPISIRTSQQELQELSPAFYGLQTQEPVRTDGLLSGPQVAHNVAQLEQLLKDIYCGRSTSAEFSYVEDIEEREWLARNFETLDQQQLGKSERCEIAELLIKSQAWDNFMALKFPTVKRYGGEGAESMLAFFWQLLRDSVQANIEHVVLAMPHRGRTPLQAALLNMRPAKVFRKLSGASEFSEDIEAMSDVISHFHVSEQLKILGKKLSFSMVRNPSHLEAANPVAMGKTRSKQQARGEGAFGDGSQPFGEHVLNVILHGDAAFAGQGINQECLNMAYVPHFEVGGSLHLIVNNQVGFTTPGDRGRSTAYTSDLAKSIQAPVFHVNGDDPEALARVTSLAFRYQREFRKDIFIDLNCFRRWGHNELDDPTFTNPLVYKIVHQRESVPDLYAQQLAKEQVLSESKAKEMRDEYMKYLGEELALAPAYQPPPSYFEKQWTNFQLAPSKELTYWDTGLDYSLLHYIGQQSVTFPEDFNIHPHLLKTHVNARLKKLENGVKIDWSTAEALAIGSLMYQGHNVRISGEDVGRGTFSHRHAMLVDQQTNEMFIPLNSMEGGNGGKLELAHSILSEEAVLGFEYGMAIDNPNNLIIWEAQFGDFANGAQIIIDTFIVSGETKWMESNALVMLLPHGYDGAASEHSSCRIERFLQLCDSKETSADGDSVNVHIVNPTTPAQYYHVLRRQLARNFRKPLVVVAPKTLLRLPAATSTHEDFQPGTLFHNVLGDTIAKPEQVRKVILCSGKHYYTLAEEREKRQAYDTAILRLESLCPFPIQELQAQLAQYGNVQSFVWSQEEHRNMGAWTFVRPRFENLIGQQLHYCGRCEAPTPATGIGKVHKREVDEIVAAPFEL”, the protein production entry is “failed”.

As for “MLSALIWGPIFGAILIAIIPNPDHDCYSRKIALGIMVAMAGLSVLLAGQFNISDPQMQFVEYYPWLPSLGLNYHLGVDGLSLPLLLLNSALVVIAIFSTNTEIERPRFYYALLLLLSGGVAGAFLAQDLLLFFLFFELEIIPLYFLIAIWGGQRRGYAAMKFLLYTALSGFLVLVSFLGWFWLTKAPNFDYNPSLADALPVKTQMLLLLPLLLGLGIKIPIFPFHTWLPDAHVEASTPVSVLLAGVLLKLGTYGLLRFGLGLYLEAWVEFAPYLATLAAISALYGASCAIAQKDMKKVVAYSSIAHMGYILLAAAAATRLSVTAASAQMVSHGIISALLFLLVGVVYKKTGSRDVDKLQGLLTPERGLPITGSLMILGVMASAGIPGMVGFIAEFLVFRGSFPIFPTQTLLCLIGSGLTAVYFLLMINRVFFGRLTMELSHLPKVRWQEQIPAIALAVVIIALGIQPHWLTQWSEPQTAVLLTGHPDLVSVPAPPRIEIEVKELGEV”, the protein production result is “failed”.

“MLSATSLKIIFAVSIFIVILIAGWYPFKKRLKDDKHIDFPIGETLATGVFLGAALLHMLPESNTLFKEMGYNYPFAFIITGVVFLIFLWFEHLGKELYHHHDAEHPAFAILAWAMLSVHSLMLGAALGFTQYNSMIIMLFLAIITHKWAESLAIAIQLNKSSMSTRKSMVFFFFFSLMTPLGIYFGWYFGHGVETNSLFDPILIAASAGTFLYLGTLHGLERCVMVERCCNLSDFSFVIIGFLLMASVAIYV”: the protein production result was “failed”.

Take “MLSGKKTILVFSMLFATFSSHADNFPKLNQALPSGIDARAIAPVFDFDTDGCLPSAGVSRSGVQNGGLKPSGNITGGCRWSNFLDSSNTLHRYACVNSAGSRYCGSFYALYFLKDQILNGVNSGHRHDWEHVAIWTKNGVVTHGSYSAHGKLTTKEASSIDKQDGHLKFSYHKDGPLTHAFRFSKTNEQAENPYGKFVTPDLISWYLMFGDGINNQELRNLLNAFDYGSASIPLKDGNFLTNLNNGRPAGYPEFTDASITVSK”: the protein production entry was “failed”.
